From the supplement of paper PMC6379048

Legend:
Experiment in all cases: Kd (EC50 corrected by depletion factor)
[1] = molecular target: T1, C1QBP (UniProt Q07021)
T1 sequence: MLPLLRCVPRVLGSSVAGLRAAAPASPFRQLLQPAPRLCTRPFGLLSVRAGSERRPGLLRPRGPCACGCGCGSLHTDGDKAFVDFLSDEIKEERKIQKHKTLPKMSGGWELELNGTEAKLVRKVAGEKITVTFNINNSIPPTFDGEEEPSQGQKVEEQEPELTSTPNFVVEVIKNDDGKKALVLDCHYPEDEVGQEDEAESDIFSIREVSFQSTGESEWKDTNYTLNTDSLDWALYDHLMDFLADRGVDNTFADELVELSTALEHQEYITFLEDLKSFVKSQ
How it was run: (§1)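 Over three biological replicates and two independent experiments, proteins captured on NHS-Sepharose beads carrying 5′-amino-C6 RNA oligos were quantified by label-free LC-MS/MS and normalised to the control. Capture lasted 30 min at 4°C and followed a 1 h pre-incubation at 4°C of HEK293-FT lysate (2.5 mg protein/well) with the same oligos in free form (0 nM to 30 μM). EC50 was taken from a four-parameter log-logistic fit, and Kd was EC50 corrected by a protein-dependent depletion factor.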

[2] = molecular target: GPATCH11 (UniProt Q8N954)
How it was run: as §1

[3] = molecular target: T2, CSTF3 (UniProt Q12996)
T2 sequence: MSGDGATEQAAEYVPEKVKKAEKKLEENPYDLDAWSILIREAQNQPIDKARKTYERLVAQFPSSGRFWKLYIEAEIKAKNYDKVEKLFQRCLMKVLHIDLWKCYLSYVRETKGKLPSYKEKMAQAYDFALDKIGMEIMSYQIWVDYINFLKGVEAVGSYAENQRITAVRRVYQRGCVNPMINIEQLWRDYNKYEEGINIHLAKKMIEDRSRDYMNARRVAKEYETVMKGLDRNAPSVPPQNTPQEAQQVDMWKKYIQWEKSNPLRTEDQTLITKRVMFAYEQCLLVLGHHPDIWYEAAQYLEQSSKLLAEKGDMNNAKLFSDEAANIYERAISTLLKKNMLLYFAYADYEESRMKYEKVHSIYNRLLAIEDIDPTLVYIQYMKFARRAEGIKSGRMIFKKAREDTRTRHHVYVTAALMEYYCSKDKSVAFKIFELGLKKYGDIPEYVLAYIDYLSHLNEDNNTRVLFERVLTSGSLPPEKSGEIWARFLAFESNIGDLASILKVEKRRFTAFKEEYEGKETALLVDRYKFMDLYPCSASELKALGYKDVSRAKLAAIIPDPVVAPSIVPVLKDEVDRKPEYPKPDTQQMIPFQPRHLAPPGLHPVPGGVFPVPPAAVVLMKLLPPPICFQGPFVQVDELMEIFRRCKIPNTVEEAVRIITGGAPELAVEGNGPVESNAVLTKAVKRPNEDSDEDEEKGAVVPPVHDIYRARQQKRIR
How it was run: as §1

[4] = molecular target: DAP3 (UniProt P51398)
How it was run: as §1

[5] = molecular target: T3, ERAL1 (UniProt O75616)
T3 sequence: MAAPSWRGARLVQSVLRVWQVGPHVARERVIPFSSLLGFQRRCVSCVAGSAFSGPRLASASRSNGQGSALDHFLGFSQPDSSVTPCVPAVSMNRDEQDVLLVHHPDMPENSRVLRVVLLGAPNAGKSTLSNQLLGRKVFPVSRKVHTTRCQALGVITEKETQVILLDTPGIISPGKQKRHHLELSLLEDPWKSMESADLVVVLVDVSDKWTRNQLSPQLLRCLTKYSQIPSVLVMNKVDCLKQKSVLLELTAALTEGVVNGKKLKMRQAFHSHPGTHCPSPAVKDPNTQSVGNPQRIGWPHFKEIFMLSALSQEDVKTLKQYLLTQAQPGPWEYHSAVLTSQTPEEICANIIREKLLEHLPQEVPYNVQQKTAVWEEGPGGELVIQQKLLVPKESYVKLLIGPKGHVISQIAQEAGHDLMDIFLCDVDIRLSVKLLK
How it was run: as §1

[6] = molecular target: T4, MEX3C (UniProt Q5U5Q3)
T4 sequence: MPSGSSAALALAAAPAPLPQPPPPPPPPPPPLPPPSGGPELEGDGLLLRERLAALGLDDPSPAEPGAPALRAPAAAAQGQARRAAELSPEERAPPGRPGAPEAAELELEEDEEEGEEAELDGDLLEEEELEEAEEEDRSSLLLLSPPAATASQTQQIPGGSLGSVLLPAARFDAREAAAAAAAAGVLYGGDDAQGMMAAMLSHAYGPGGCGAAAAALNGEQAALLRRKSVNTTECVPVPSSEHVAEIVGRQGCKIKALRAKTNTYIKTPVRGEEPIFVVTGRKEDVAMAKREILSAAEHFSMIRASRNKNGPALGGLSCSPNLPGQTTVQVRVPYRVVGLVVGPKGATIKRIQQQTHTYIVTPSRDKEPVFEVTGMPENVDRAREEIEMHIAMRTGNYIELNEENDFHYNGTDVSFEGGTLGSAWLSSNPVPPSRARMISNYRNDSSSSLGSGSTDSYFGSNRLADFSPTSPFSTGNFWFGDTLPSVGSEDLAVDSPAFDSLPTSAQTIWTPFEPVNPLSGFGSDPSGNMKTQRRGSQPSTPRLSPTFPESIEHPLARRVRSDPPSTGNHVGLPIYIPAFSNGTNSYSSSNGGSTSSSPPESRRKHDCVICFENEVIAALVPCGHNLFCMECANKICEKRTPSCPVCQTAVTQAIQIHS
How it was run: as §1

[7] = molecular target: T5, RBM38 (UniProt Q9H0Z9)
T5 sequence: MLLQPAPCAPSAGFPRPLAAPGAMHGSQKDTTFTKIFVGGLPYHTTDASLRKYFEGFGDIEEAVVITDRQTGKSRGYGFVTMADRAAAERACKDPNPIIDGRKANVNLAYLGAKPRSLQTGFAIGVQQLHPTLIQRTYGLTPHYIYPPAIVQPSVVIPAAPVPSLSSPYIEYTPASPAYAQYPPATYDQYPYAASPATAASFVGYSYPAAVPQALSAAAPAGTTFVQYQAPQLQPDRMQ
How it was run: as §1

GPATCH11, sequence (Q8N954 whole entry): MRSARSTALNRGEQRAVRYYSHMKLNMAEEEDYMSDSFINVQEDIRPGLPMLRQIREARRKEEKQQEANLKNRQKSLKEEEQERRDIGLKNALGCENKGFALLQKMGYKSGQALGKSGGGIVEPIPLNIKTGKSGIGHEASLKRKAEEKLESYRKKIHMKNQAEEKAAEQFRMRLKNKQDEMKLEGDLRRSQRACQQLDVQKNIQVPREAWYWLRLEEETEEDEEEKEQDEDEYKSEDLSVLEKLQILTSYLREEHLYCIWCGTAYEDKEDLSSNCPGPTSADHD

| Sequence | Kd [1] [nM] | Kd [2] [nM] | Kd [3] [nM] | Kd [4] [nM] | Kd [5] [nM] | Kd [6] [nM] | Kd [7] [nM] |
| --- | --- | --- | --- | --- | --- | --- | --- |
| AAUAAA | 477 | 32.5 | – | – | – | – | – |
| UAUUUAU | – | – | 352 | 37.4 | 25.5 | 339 | 1270 |
